The text below walks through data of patent US20140248291A1, “Modulation of Cellular Migration” (THE UAB RESEARCH FOUNDATION, priority 2011, published 2014).

One experiment relates to D54-MG cells. Put plainly: calcium imaging (Fura-2) of D54-MG cells after neuroligands. Type of experiment: cell-based, human. Here is the method:
D54-MG cells were plated on 35-mm glass bottom dishes (MatTek, Corp., Ashland, Mass.) at ˜100×10^3 per dish and cultured for 2 days. pTRIPZ transfected cells, after stable selection, were plated at a density of ˜20×10^3 per dish and treated with […] doxycycline for 4 to 5 days to allow for sufficient protein knockdown. All cells were loaded in serum-free culture medium for 45 min with the ratiometric Ca^2+ dye Fura-2-acetoxymethylester (5 μmol/L; TEFLABS, Austin, Tex.) reconstituted in 20% wiv pluronic acid in DMSO (Invitrogen, Carlsbad, Calif.). Cells were rinsed with serum-free medium and allowed to rest in 7% serum-containing medium for 45 min at 37° C. The glass-bottom dishes were placed in an environmental chamber mounted on an inverted microscope. Cells were allowed to equilibrate in the chamber for 15 min before calcium images were collected. Following equilibration, recordings were obtained with an Olympus Disk Spinning Unit (DSU) fluorescent imaging microscope where cells were alternately excited at 340 and 380 nm using an x-cite illumination light source. Emitted light was collected at >520 nm. Images were digitized online using Slidebook 4.2 software (Intelligent Imaging Innovations, Denver, Colo.), and 340:380 nm ratios were obtained every 15 seconds. Following a 5 minute baseline recording every 15 seconds, BK was applied to the cells and imaging continued every 15 seconds for 30 or 60 minutes. In a subset of experiments, BK antagonists, HOE-140 and Bradyzide were applied to the cells. These experiments were repeated at least three times and data were pooled for statistical analysis.
Glioma cells respond to environmental clues as they invade the brain. It has been previously shown that the exposure of glioma cells to certain neuroligands induces increase in intracellular calcium concentrations. In this series of experiments, we investigated Ca^2+-responses in cultured D54-MG glioma cells, after addition of acetylcholine (ACh), ATP or BK. Glioma cells were loaded with the ratiometric Ca^2+-dye FURA2-AM, and imaged over 30 min.

Another experiment has as its system D54-MG-GFP glioma cells. Put plainly: Transwell migration assay. Type of experiment: cell-based, human. The settings on record: 5 h, neuroligand at bottom of filter. Here is the method:
The day before the experiment was performed, ˜70% confluent dishes of cells were prepared. Transwell migration Fluoroblock cell culture inserts (BD Biosciences, San Jose, Calif.) with 8 μm pores were coated overnight with Vitronectin (BD Biosciences, San Jose, Calif.) at a concentration of 5 μg/ml in PBS. The following day, inserts were blocked with 1% fatty acid-free bovine serum albumin for 1 h. Inserts were then washed two times in PBS, and 400 μl of Migration Assay Buffer (MAB, 0.1% fatty acid-free bovine serum albumin in serum-free media) was added to the bottom of each well. Cells were rinsed once in PBS and were lifted off the dish by the addition of 0.5 mm EGTA. Cells were rinsed twice by centrifugation and resuspended in MAB and counted. Forty thousand cells were plated on the top of each filter and allowed to adhere for 30 min before drug was added. When BK+/−antagonists was added to the filters, it was added only to the bottom of the filter for chemotaxis. For migration assay, D54-EGFP MG cells were allowed to migrate for 5 hours, washed with PBS, fixed with 4% paraformaldehyde 15 minutes at room temperature, washed thrice and counterstained with DAPI for 5 minutes at room temperature. Invasion assay was performed similarly. Matrigel cell cultured inserts (BD Biosciences, San Jose, Calif.) with 8 μm pores were pretreated Vitronectin and blocked as described above. […] The number of nuclei that migrated through pores was counted. All counts per treatment were averaged and SE values were calculated. […]
To investigate the hypothesis that BK promotes glioma migration in vitro, we used Transwell migration assay which conveniently permit examination of cell migration across a membrane barrier with 8 μm pores towards vitronectin, a chemo-attractant extracellular matrix protein. This frequently used assay allows a quantitative study of drug effects with regards to drugs acting as motogens or as chemo-attractants. […]

In the next experiment the target is B2R (Homo sapiens, UniProt P30411). The settings on record: cited from earlier work.
The target in experiment [1] is bradykinin-2-receptor (B2R), human, as expressed on glioma cells (D54-MG, D54-MG-GFP, U251-MG) (human) (UniProt P30411). As to the kind of experiment: cell-based or functional assay.
Chain of bradykinin-2-receptor (B2R), human, as expressed on glioma cells (D54-MG, D54-MG-GFP, U251-MG) (human) (P30411 whole entry): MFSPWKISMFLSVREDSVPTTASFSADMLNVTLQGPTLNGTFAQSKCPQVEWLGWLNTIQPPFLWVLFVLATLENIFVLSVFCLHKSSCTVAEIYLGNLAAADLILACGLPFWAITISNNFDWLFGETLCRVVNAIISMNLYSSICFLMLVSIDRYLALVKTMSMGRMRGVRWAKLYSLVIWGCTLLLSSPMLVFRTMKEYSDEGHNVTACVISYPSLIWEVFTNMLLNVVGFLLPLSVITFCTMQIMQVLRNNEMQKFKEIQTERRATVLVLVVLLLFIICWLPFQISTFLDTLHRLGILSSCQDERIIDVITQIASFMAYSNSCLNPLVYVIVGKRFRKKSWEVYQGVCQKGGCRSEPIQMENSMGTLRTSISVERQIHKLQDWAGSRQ

Chain of B2R (P30411 whole entry, species assumed): as the sequence (P30411 whole entry) above

Regarding `CC(=O)OCC[N+](C)(C)C` [ACh, acetylcholine], in the experiment on D54-MG cells (50 μM ACh), the “average peak of Ca2+ response” value was found to be 0.23±0.04. Further, in the experiment with D54-MG cells (50 μM ACh, of 128 cells imaged), the “cells responded (sustained rise in intracellular calcium)” value worked out at 116.
Take `Nc1ncnc2c1ncn2[C@@H]1O[C@H](COP(=O)(O)OP(=O)(O)OP(=O)(O)O)[C@@H](O)[C@H]1O` [ATP]: in the experiment with D54-MG cells (100 μM ATP), the “average peak of Ca2+ response” value is recorded as 0.45±0.05 and the “cells responded / cells imaged” value was 87/146. Further, in the experiment on D54-MG-GFP glioma cells, the “effect on D54-MG cell migration” value is reported as “failed to alter glioma migration”.
Regarding `N=C(N)NCCC[C@@H](N)C(=O)N[C@@H](CCCNC(=N)N)C(=O)N1CCC[C@H]1C(=O)N1C[C@H](O)C[C@H]1C(=O)NCC(=O)N[C@@H](Cc1cccs1)C(=O)N[C@@H](CO)C(=O)N1Cc2ccccc2C[C@@H]1C(=O)N1[C@H](C(=O)N[C@@H](CCCNC(=N)N)C(=O)O)C[C@@H]2CCCC[C@@H]21` [Icatibant], on B2R, the B2R antagonism entry was “potent antagonist”.
Turning to “HOE-140 (D-Arg-[Hyp3, Thi5, D-Tic7, Oic8]bradykinin) (peptide)”, in experiment [1], the Ca2+-response of D54-MG cells to BK in the presence of HOE-140: average peak came out at 0.15; the Ca2+-response of D54-MG cells to BK in the presence of HOE-140: cells responded was 22 of 162 cells; the directionality of D54-MG cells in a BK concentration gradient in the presence of HOE-140 was 8 of 15 cells; the rat brain slice invasion with BK and HOE-140: cells migrated up to 15 µm was 25.7%. In experiment [1], this molecule gave a rat brain slice invasion with BK and HOE-140: cells migrated up to 20 µm of 15.4%; a rat brain slice invasion with BK and HOE-140: cells migrated up to 25 µm of 6.4%; a rat brain slice invasion with BK and HOE-140: cells remaining on the top of the slice of 47.5%; a rat brain slice invasion with HOE-140 alone: cells migrated up to 15 µm of 29.8%. In experiment [1], this molecule yielded a rat brain slice invasion with HOE-140 alone: cells migrated up to 20 µm of 14.4%, a rat brain slice invasion with HOE-140 alone: cells migrated up to 25 µm of 3.5% and a rat brain slice invasion with HOE-140 alone: cells on top of the slice of 51.9%.
